Reference: paper PMC7393505

Biological target: 4×SUMO2 linear fusion (C47A) with a single C-terminal cysteine labelled with Alexa488
Assay: fluorescence polarisation; unlabelled RNF4 titrated against 1 µM 4×SUMO-Alexa488; 50 mM Tris, 150 mM NaCl, 0.5 mM TCEP, pH 7.5; room temperature, 10 min before measuring FP

For “RNF4 ∆Basic, full-length (basic charge removed from the arginine-rich motif) (from UniProt O88846 1-194) (enzyme)”, which Kd is on record?
Its Kd is 2.6 µM.
